Source: patent US9260500B2, “Peptide and use thereof” (Takeda Pharmaceutical Company Limited, priority 2009, dated 2016)
Starred links: 1 amine or outer side, 2 acyl side, 3 side chain; linkers in the order of their positions; H or OH if unused. Non-standard residues stand in square brackets, D forms with d. Ala(piperidin-4-yl) = O=C([C@H](CC1CCN([*:3])CC1)N[*:1])[*:2]; Arg(Me) = CNC(=N)NCCC[C@H](N)C(=O)O; hArg = N=C(N)NCCCC[C@H](N)C(=O)O; tBuAla = CC(C)(C)C[C@H](N)C(=O)O; 4Pal = N[C@@H](Cc1ccncc1)C(=O)O; dHyp = O=C(O)[C@H]1C[C@H](O)CN1; Cha = N[C@@H](CC1CCCCC1)C(=O)O; dIva = CC[C@@](C)(N)C(=O)O; Iva = CC[C@](C)(N)C(=O)O; Nle = CCCC[C@H](N)C(=O)O; Abu = CC[C@H](N)C(=O)O; Aib = CC(C)(N)C(=O)O

Legend:
human Y2 receptor [1] = target: T1, human Y2 receptor (Homo sapiens, UniProt P49146); assay: Human Y2 Receptor G Protein Binding Assay (GBA), [35S]GTPγS; format: biochemical; settings: EC50 of test compound/EC50 of PYY(3-36) (PYY3-36 taken as 1), hY2R/CHO membrane fraction
T1 construct: expressed in transfected cells; membrane fraction
T1 sequence (P49146 1-381): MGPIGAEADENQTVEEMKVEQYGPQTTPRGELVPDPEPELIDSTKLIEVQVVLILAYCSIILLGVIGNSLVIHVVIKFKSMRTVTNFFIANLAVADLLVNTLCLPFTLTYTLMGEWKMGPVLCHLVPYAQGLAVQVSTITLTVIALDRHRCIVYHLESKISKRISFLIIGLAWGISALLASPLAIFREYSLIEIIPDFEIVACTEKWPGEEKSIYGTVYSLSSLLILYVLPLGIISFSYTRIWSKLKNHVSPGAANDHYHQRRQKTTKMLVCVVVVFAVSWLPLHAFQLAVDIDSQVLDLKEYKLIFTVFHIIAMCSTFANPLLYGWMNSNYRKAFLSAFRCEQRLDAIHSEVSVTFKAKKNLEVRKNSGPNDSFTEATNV
Method in brief: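 Agonism measured as [35S]GTPγS binding, read by GF/C filtration and scintillation counting after 120 min at room temperature, using human Y2 membranes at 1 μg protein/mL in pH 7.4 Tris/MgCl2/NaCl/GDP buffer. Compound serially diluted 100 μM–1 nM; EC50 normalized to PYY(3-36) (ratio = compound/PYY).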

human Y2 receptor [2] = target: T1, human Y2 receptor; assay: Receptor Binding Assay (RBA) for Human Y2, [125I]-PYY displacement on hY2R/CHO membrane fraction; settings: IC50 of test compound/IC50 of PYY(3-36) (PYY(3-36) taken as 1)
Method in brief: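 hY2R stably expressed in CHO/dhfr− cells; membrane fraction prepared from cells disrupted in 10 mM NaHCO3, 5 mM EDTA buffer with protease inhibitors. Binding read as displacement of [125I]-PYY.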

male C57EL/6J mice = assay: 3-Days Continuous Subcutaneous Administration Test-1 (food intake suppressing activity); format: in vivo, mouse; settings: 0.03 mg/kg/day, subcutaneous Alzet pump, food consumption over 3 days; relative to food intake suppression rate for PYY(3-36) (1 mg/kg/day) taken as 100%
Method in brief: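 Male […] mice, 12-13 weeks, received compound at 0.03 mg/kg/day by subcutaneous osmotic pump (50% DMSO vehicle), housed singly with free food access. Food consumed over 3 days measured; suppression expressed relative to PYY(3-36) (1 mg/kg/day) set as 100%.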

Row | Substance | GBA EC50 Ratio (human Y2 receptor [1]) | RBA IC50 Ratio (human Y2 receptor [2]) | food intake suppression rate (%) (male C57EL/6J mice)
1 | Ac-[D-Hyp24, Iva25, Pya(4)26, Cha27,36, Leu(Me)28, Lys30, Aib31]-PYY(23-36) (Ac-S[dHyp][Iva][4Pal][Cha][tBuAla]NK[Aib]TRQR[Cha]-NH2; SMILES CC[C@](C)(NC(=O)[C@H]1C[C@H](O)CN1C(=O)[C@H](CO)NC(C)=O)C(=O)N[C@@H](Cc1ccncc1)C(=O)N[C@@H](CC1CCCCC1)C(=O)N[C@@H](CC(C)(C)C)C(=O)N[C@@H](CC(N)=O)C(=O)N[C@@H](CCCCN)C(=O)NC(C)(C)C(=O)N[C@H](C(=O)N[C@@H](CCCNC(=N)N)C(=O)N[C@@H](CCC(N)=O)C(=O)N[C@@H](CCCNC(=N)N)C(=O)N[C@@H](CC1CCCCC1)C(N)=O)[C@@H](C)O) [compound No. 335] | 1.5 | 0.97 | 27%
2 | Ac-[D-Iva24, Pya(4)26, Cha27,36, Aib28,31, Lys30]-PYY(23-36) (Ac-S[dIva]R[4Pal][Cha][Aib]NK[Aib]TRQR[Cha]-NH2; SMILES CC[C@@](C)(NC(=O)[C@H](CO)NC(C)=O)C(=O)N[C@@H](CCCNC(=N)N)C(=O)N[C@@H](Cc1ccncc1)C(=O)N[C@@H](CC1CCCCC1)C(=O)NC(C)(C)C(=O)N[C@@H](CC(N)=O)C(=O)N[C@@H](CCCCN)C(=O)NC(C)(C)C(=O)N[C@H](C(=O)N[C@@H](CCCNC(=N)N)C(=O)N[C@@H](CCC(N)=O)C(=O)N[C@@H](CCCNC(=N)N)C(=O)N[C@@H](CC1CCCCC1)C(N)=O)[C@@H](C)O) [compound No. 242] | 1.3 | 0.39 | 25%
3 | Ac-[D-Pro24, Abu26, Cha27,36, Aib28,31, Lys30]-PYY(23-36) (Ac-S[dP]R[Abu][Cha][Aib]NK[Aib]TRQR[Cha]-NH2; SMILES CC[C@H](NC(=O)[C@H](CCCNC(=N)N)NC(=O)[C@H]1CCCN1C(=O)[C@H](CO)NC(C)=O)C(=O)N[C@@H](CC1CCCCC1)C(=O)NC(C)(C)C(=O)N[C@@H](CC(N)=O)C(=O)N[C@@H](CCCCN)C(=O)NC(C)(C)C(=O)N[C@H](C(=O)N[C@@H](CCCNC(=N)N)C(=O)N[C@@H](CCC(N)=O)C(=O)N[C@@H](CCCNC(=N)N)C(=O)N[C@@H](CC1CCCCC1)C(N)=O)[C@@H](C)O) [compound No. 320] | 0.98 | 2.3 | 18%
4 | Ac-[D-Pro24, Ala(4Pip)25, Pya(4)26, Cha27,36, Aib28,31, Lys30]-PYY(23-36) [compound No. 312] (Ac-S[dP][Ala(piperidin-4-yl)][4Pal][Cha][Aib]NK[Aib]TRQR[Cha]-NH2; SMILES CC(=O)N[C@@H](CO)C(=O)N1CCC[C@@H]1C(=O)N[C@@H](CC1CCNCC1)C(=O)N[C@@H](Cc1ccncc1)C(=O)N[C@@H](CC1CCCCC1)C(=O)NC(C)(C)C(=O)N[C@@H](CC(N)=O)C(=O)N[C@@H](CCCCN)C(=O)NC(C)(C)C(=O)N[C@H](C(=O)N[C@@H](CCCNC(=N)N)C(=O)N[C@@H](CCC(N)=O)C(=O)N[C@@H](CCCNC(=N)N)C(=O)N[C@@H](CC1CCCCC1)C(N)=O)[C@@H](C)O) | 5.8 | 4.3 | 10%
5 | Ac-[D-Pro24, Ala(4Pip)26, Cha27,36, Aib28,31, Lys30]-PYY(23-36) (Ac-S[dP]R[Ala(piperidin-4-yl)][Cha][Aib]NK[Aib]TRQR[Cha]-NH2; SMILES CC(=O)N[C@@H](CO)C(=O)N1CCC[C@@H]1C(=O)N[C@@H](CCCNC(=N)N)C(=O)N[C@@H](CC1CCNCC1)C(=O)N[C@@H](CC1CCCCC1)C(=O)NC(C)(C)C(=O)N[C@@H](CC(N)=O)C(=O)N[C@@H](CCCCN)C(=O)NC(C)(C)C(=O)N[C@H](C(=O)N[C@@H](CCCNC(=N)N)C(=O)N[C@@H](CCC(N)=O)C(=O)N[C@@H](CCCNC(=N)N)C(=O)N[C@@H](CC1CCCCC1)C(N)=O)[C@@H](C)O) [compound No. 310] | 1.5 | 1.2 | 12%
6 | Ac-[D-Pro24, Arg(Me)25,30, Pya(4)26, Cha27,36, Aib28,31]-PYY(23-36) (Ac-S[dP][Arg(Me)][4Pal][Cha][Aib]N[Arg(Me)][Aib]TRQR[Cha]-NH2; SMILES CNC(=N)NCCC[C@H](NC(=O)[C@H](CC(N)=O)NC(=O)C(C)(C)NC(=O)[C@H](CC1CCCCC1)NC(=O)[C@H](Cc1ccncc1)NC(=O)[C@H](CCCNC(=N)NC)NC(=O)[C@H]1CCCN1C(=O)[C@H](CO)NC(C)=O)C(=O)NC(C)(C)C(=O)N[C@H](C(=O)N[C@@H](CCCNC(=N)N)C(=O)N[C@@H](CCC(N)=O)C(=O)N[C@@H](CCCNC(=N)N)C(=O)N[C@@H](CC1CCCCC1)C(N)=O)[C@@H](C)O) [compound No. 315] | 1.5 | 1.5 | 45%
7 | Ac-[D-Pro24, Arg(Me)25, Pya(4)26, Cha27,36, Aib28,31, Lys30]-PYY(23-36) [compound No. 319] | 1.3 | 1.1 | 40%
8 | Ac-[D-Pro24, Iva25,28, Pya(4)26, Cha27,36, Lys30, Aib31]-PYY(23-36) (Ac-S[dP][Iva][4Pal][Cha][Iva]NK[Aib]TRQR[Cha]-NH2; SMILES CC[C@](C)(NC(=O)[C@H](CC1CCCCC1)NC(=O)[C@H](Cc1ccncc1)NC(=O)[C@](C)(CC)NC(=O)[C@H]1CCCN1C(=O)[C@H](CO)NC(C)=O)C(=O)N[C@@H](CC(N)=O)C(=O)N[C@@H](CCCCN)C(=O)NC(C)(C)C(=O)N[C@H](C(=O)N[C@@H](CCCNC(=N)N)C(=O)N[C@@H](CCC(N)=O)C(=O)N[C@@H](CCCNC(=N)N)C(=O)N[C@@H](CC1CCCCC1)C(N)=O)[C@@H](C)O) [compound No. 296] | 1.0 | 1.1 | 36%
9 | Ac-[D-Pro24, Iva25, Pya(4)26, Cha27,36, Aib28,31, Arg(Me)30]-PYY(23-36) (Ac-S[dP][Iva][4Pal][Cha][Aib]N[Arg(Me)][Aib]TRQR[Cha]-NH2) [compound No. 316] | 1.7 | 2.4 | 29%
10 | Ac-[D-Pro24, Iva25, Pya(4)26, Cha27,36, Aib28,31, Har30]-PYY(23-36) (Ac-S[dP][Iva][4Pal][Cha][Aib]N[hArg][Aib]TRQR[Cha]-NH2; SMILES CC[C@](C)(NC(=O)[C@H]1CCCN1C(=O)[C@H](CO)NC(C)=O)C(=O)N[C@@H](Cc1ccncc1)C(=O)N[C@@H](CC1CCCCC1)C(=O)NC(C)(C)C(=O)N[C@@H](CC(N)=O)C(=O)N[C@@H](CCCCNC(=N)N)C(=O)NC(C)(C)C(=O)N[C@H](C(=O)N[C@@H](CCCNC(=N)N)C(=O)N[C@@H](CCC(N)=O)C(=O)N[C@@H](CCCNC(=N)N)C(=O)N[C@@H](CC1CCCCC1)C(N)=O)[C@@H](C)O) [compound No. 317] | 1.0 | 0.65 | 49%
11 | Ac-[D-Pro24, Iva25, Pya(4)26, Cha27,36, Aib28,31, Lys30]-PYY(23-36) (Ac-S[dP][Iva][4Pal][Cha][Aib]NK[Aib]TRQR[Cha]-NH2; SMILES CC[C@](C)(NC(=O)[C@H]1CCCN1C(=O)[C@H](CO)NC(C)=O)C(=O)N[C@@H](Cc1ccncc1)C(=O)N[C@@H](CC1CCCCC1)C(=O)NC(C)(C)C(=O)N[C@@H](CC(N)=O)C(=O)N[C@@H](CCCCN)C(=O)NC(C)(C)C(=O)N[C@H](C(=O)N[C@@H](CCCNC(=N)N)C(=O)N[C@@H](CCC(N)=O)C(=O)N[C@@H](CCCNC(=N)N)C(=O)N[C@@H](CC1CCCCC1)C(N)=O)[C@@H](C)O) [compound No. 237] | 2.9 | 2.9 | 46%
12 | Ac-[D-Pro24, Iva25, Pya(4)26, Cha27,36, Leu(Me)28, Lys30, Aib31]-PYY(23-36) [compound No. 295] | 1.2 | 0.76 | 52%
13 | Ac-[D-Pro24, Nle25, Pya(4)26, Cha27,36, Aib28,31, Lys30]-PYY(23-36) (Ac-S[dP][Nle][4Pal][Cha][Aib]NK[Aib]TRQR[Cha]-NH2; SMILES CCCC[C@H](NC(=O)[C@H]1CCCN1C(=O)[C@H](CO)NC(C)=O)C(=O)N[C@@H](Cc1ccncc1)C(=O)N[C@@H](CC1CCCCC1)C(=O)NC(C)(C)C(=O)N[C@@H](CC(N)=O)C(=O)N[C@@H](CCCCN)C(=O)NC(C)(C)C(=O)N[C@H](C(=O)N[C@@H](CCCNC(=N)N)C(=O)N[C@@H](CCC(N)=O)C(=O)N[C@@H](CCCNC(=N)N)C(=O)N[C@@H](CC1CCCCC1)C(N)=O)[C@@H](C)O) [compound No. 224] | 2.4 | 3.0 | 30%
